# Laboratory results reported in patent publication US20190315839A1.
# Columns and labels:
# Test in all cases: binding ELISA; OD450 on mutant D2VLP divided by OD450 on original pacD2VLP x100
# [1] = target: E311R mutant DENV-2 VLP (Dengue virus serotype 2, strain 16681) (UniProt P29990)
# [2] = target: K310E mutant DENV-2 VLP (Dengue virus serotype 2, strain 16681) (UniProt P29990)
# [3] = target: W101G mutant DENV-2 VLP (Dengue virus serotype 2, strain 16681) (UniProt P29990)
substance,measurement,setting,value
4G2 (antibody),Relative binding (%),[1],99.4%
same,Relative binding (%),[2],110%
same,Relative binding (%),[3],9%
